Source: article PMC6765224, “Stereospecificity control in aminoacyl-tRNA-synthetases: new evidence of D-amino acids activation and editing” (Nucleic Acids Research, 2019)

Legend:
Test in all cases: purified protein
[1] = substrate: C[C@@H](N)C(=O)O; conditions: amino acid activation, pH 7.5
[2] = substrate: C[C@H](N)C(=O)O; conditions: amino acid activation, pH 7.5
[3] = substrate: N[C@@H](CO)C(=O)O; conditions: amino acid activation
[4] = substrate: N[C@@H](Cc1ccc(O)cc1)C(=O)O; type: biochemical, Thermus thermophilus; conditions: amino acid activation, 4 mM ATP, 1 mM PPi, 10 mM MgCl2, pH 7.5, 60 °C
[5] = substrate: N[C@H](Cc1ccc(O)cc1)C(=O)O; type: biochemical, Thermus thermophilus; conditions: amino acid activation, 4 mM ATP, 1 mM PPi, 10 mM MgCl2, pH 7.5, 60 °C
[6] = substrate: NCC(=O)O; type: biochemical, Thermus thermophilus; conditions: amino acid activation, 4 mM ATP, 1 mM PPi, 10 mM MgCl2, pH 7.5, 60 °C
[7] = editing-deficient mutant, 37.0 °C
[8] = 4 mM ATP, 1 mM PPi, 10 mM MgCl2, pH 7.5, 60 °C, 60.0 °C
[9] = 4 mM ATP, 1 mM PPi, 10 mM MgCl2, pH 7.5, 60 °C, pH 7.5, 60.0 °C

B1: E. coli C666A AlaRS (Escherichia coli K-12; C666A) (protein)
chain: SKSTAEIRQAFLDFFHSKGHQVVASSSLVPHNDPTLLFTNAGMNQFKDVFLGLDKRNYSRATTSQRCVRAGGKHNDLENVGYTARHHTFFEMLGNFSFGDYFKHDAIQFAWELLTSEKWFALPKERLWVTVYESDDEAYEIWEKEVGIPRERIIRIGDNKGAPYASDNFWQMGDTGPCGPCTEIFYDHGDHIWGGPPGSPEEDGDRYIEIWNIVFMQFNRQADGTMEPLPKPSVDTGMGLERIAAVLQHVNSNYDIDLFRTLIQAVAKVTGATDLSNKSLRVIADHIRSCAFLIADGVMPSNENRGYVLRRIIRRAVRHGNMLGAKETFFYKLVGPLIDVMGSAGEDLKRQQAQVEQVLKTEEEQFARTLERGLALLDEELAKLSGDTLDGETAFRLYDTYGFPVDLTADVCRERNIKVDEAGFEAAMEEQRRRAREASGFGADYNAMIRVDSASEFKGYDHLELNGKVTALFVDGKAVDAINAGQEAVVVLDQTPFYAESGGQVGDKGELKGANFSFAVEDTQKYGQAIGHIGKLAAGSLKVGDAVQADVDEARRARIRLNHSATHLMHAALRQVLGTHVSQKGSLVNDKVLRFDFSHNEAMKPEEIRAVEDLVNTQIRRNLPIETNIMDLEAAKAKGAMALFGEKYDERVRVLSMGDFSTELAGGTHASRTGDIGLFRIISESGTAAGVRRIEAVTGEGAIATVHADSDRLSEVAHLLKGDSNNLADKVRSVLERTRQLEKELQQLKEQAAAQESANLSSKAIDVNGVKLLVSELSGVEPKMLRTMVDDLKNQLGSTIIVLATVVEGKVSLIAGVSKDVTDRVKAGELIGMVAQQVGGKGGGRPDMAQAGGTDAAALPAALASVKGWVSAKLQ
Km [1, 7]: 60000 ± 20000 µM | kcat [1, 7]: 0.1 s⁻¹ | kcat/Km [1, 7]: 1.8 M⁻¹ s⁻¹ | Km [2, 7]: 304 ± 43 µM | kcat [2, 7]: 0.18 s⁻¹ | kcat/Km [2, 7]: 600 M⁻¹ s⁻¹ | Km ([3]; editing-deficient mutant): 27000 ± 6000 µM | kcat ([3]; editing-deficient mutant): 0.147 ± 0.04 s⁻¹

B2: TyrRSTT (T. thermophilus tyrosyl-tRNA-synthetase) (Thermus thermophilus HB27) (protein)
chain: MAGTGHTPEEALALLKRGAEEIVPEEELLAKLKEGRPLTVKLGADPTRPDLHLGHAVVLRKMRQFQELGHKVVLIIGDFTGMIGDPSGRSKTRPPLTLEETRENAKTYVAQAGKILRQEPHLFELRYNSEWLEGLTFKEVVRLTSLMTVAQMLEREDFKKRYEAGIPISLHELLYPFAQAYDSVAIRADVEMGGTDQRFNLLVGREVQRAYGQSPQVCFLMPLLVGLDGREKMSKSLDNYIGLTEPPEAMFKKLMRVPDPLLPSYFRLLTDLEEEEIEALLKAGPVPAHRVLARLLTAAYALPQIPPRIDRAFYESLGYAWEAFGRDKEAGPEEVRRAEARYDEVAKGGIPEEIPEVTIPASELKEGRIWVARLFTLAGLTPSNAEARRLIQNRGLRLDGEVLTDPMLQVDLSRPRILQRGKDRFVRVRLSD
notes: wild type
Km [4]: 9 ± 2 µM | kcat [4]: 17.4 ± 3.9 s⁻¹ | kcat/Km [4]: 1.93e+06 M⁻¹ s⁻¹ | Km [5]: 27.6 ± 7.5 µM | kcat [5]: 2.2 ± 0.65 s⁻¹ | kcat/Km [5]: 80000 M⁻¹ s⁻¹

B3: AlaRSTT (Thermus thermophilus alanyl-tRNA-synthetase) (Thermus thermophilus HB27) (protein)
chain: MRTAEIREKFLSFFEGKGHLRLPSFSLIPEDDPSLLFTSAGMAPLKPYFLGAKPIFGGREWRRVTTCQECLRVGDIENVGRTSRHNTYFEMLGNFSFGDYFKKEAILWAWEFLTEHLRLDPGRLWVTVFEDDDEAYEIWRDLVGVPEERIGRFGEDENYWPGGAITHGPNGPSGPCSEIFYDRGPAYGTPDETGPNTGSGDRFVEIWNLVFTQYDRQGPIPGPGILKPLPQKNIDTGMGLYRVAAILQDVEDFYRTDTFFPIIQEVARMSGRPYEGKTSVSHRVIADHVRAVVAALSDGATFSNTGRGYVIRRLLRRALRHGYLLGLSDPFLHRLAPLVAELLGDFYPEMRENLPAVEKQIRLEEERFLETLEGGLKRLDALLSGLKPGEVLPGKEAFRLYDTYGFPLDLTVEIAAERGYGVDTEGFQKAMEEQQSRSRAAMAFEREIFKKGAQVLEELYAERGATEFLGYNALEAEAEVLALLAGDQSLLEAGPGTEVQVVLDKTPFYAEGGGQIGDFGLLEWPGGRARVETTRKTERGIFLHKARVEEGVLRVGERVRAVVDPRRRDTERNHTATHLLHAALRAVLGPHVRQAGSLVAPDRLRFDFTHPEPLKPEELERVELLVNRWIMADFPVTWRYMPLEEARKEGAMALFGEKYGEVVRVVRVEGSPLEGLESKELCGGCHVRRTGEIGAFLIRSEEAVSAGVRRIEAVTGEEAIRFARGSLNRLKALAERLEVGEAALEERLEKLLAELKEKEREVESLKARLVQAALGGGGGASLEEKGGLRWTVAELPGLDAKALRQAADDLVARGADVALVLSGGQAVLKLSPKAQGMGLEAGALFRALAEKAGGRGGGKGALAQGGGLDPRKAREALPGLLP
notes: His-tagged, pET28b, expressed in E. coli BL21(DE3)Star; wild type
Km [1, 8]: 2190 ± 500 µM | kcat [1, 8]: 0.21 s⁻¹ | kcat/Km [1, 8]: 120 M⁻¹ s⁻¹ | Km [2, 8]: 139 ± 12 µM | kcat [2, 8]: 7.88 s⁻¹ | kcat/Km [2, 8]: 56000 M⁻¹ s⁻¹ | Km [3, 9]: 10000 ± 2000 µM | kcat [3, 9]: 2.3 s⁻¹ | kcat/Km [3, 9]: 236 M⁻¹ s⁻¹ | Km [6]: 22000 ± 8000 µM | kcat [6]: 6.5 ± 1.6 s⁻¹ | kcat/Km [6]: 290 M⁻¹ s⁻¹
